Laboratory results as given in publication PMC4154765, “Crystal Structure of the Mineralocorticoid Receptor DNA Binding Domain in Complex with DNA” (PLoS ONE, 2014).

Assays:
MR DBD [1] = biological target: T1, MR DBD (human, UniProt P08235 593-671); assay: X-ray crystallography; DBD dimer on two half sites; 2.4 A; FP: 100 mM NaCl, 20 mM Tris-HCl pH 7.4, 5% glycerol, 10 nM FAM-GRE; temperature not stated; settings: protein: recombinant; tags: 6xHis (pMCSG7 vector); chain copies: 2
[2] = biological target: the molecule itself; assay: crystal structure; MR DBD crystallised with a 17 base pair GRE DNA, 2:1 molar ratio of DNA to protein, protein at 3.0 mg/ml; hanging-drop vapor diffusion, 0.2 M sodium malonate, 12% PEG 3350; the DBD dimer is seen bound to the two DNA half sites
GR DBD = GR DBD (UniProt P04150 417-506); assay: fluorescence polarization; 10 nM DNA; slight positive cooperativity; endpoint called affinity; FP: 100 mM NaCl, 20 mM Tris-HCl pH 7.4, 5% glycerol, 10 nM FAM-GRE; temperature not stated; settings: protein: recombinant; chain copies: 2; label: 5' 6-FAM on strand 1; blunt
MR DBD [3] = biological target: T1, MR DBD; assay: as above; settings: protein: recombinant; tags: 6xHis (pMCSG7 vector); chain copies: 2; label: 5' 6-FAM on strand 1; blunt

Chain of GR DBD (P04150 417-506): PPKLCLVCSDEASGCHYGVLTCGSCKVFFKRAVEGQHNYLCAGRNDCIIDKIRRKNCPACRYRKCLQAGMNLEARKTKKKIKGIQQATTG

B1: GRE 17 bp (crystal) (dsDNA)
DNA 1: GTCTTGTCTCACAAGAC
DNA 2: GTCTTGTGAGACAAGAC
MR DBD [1]
  binding result: binds

B2: human mineralocorticoid receptor DNA binding domain (domain or fragment, UniProt P08235 593-671, looked up)
chain: STGSSRPSKICLVCGDEASGCHYGVVTCGSCKVFFKRAVEGQHNYLCAGRNDCIIDKIRRKNCPACRLQKCLQAGMNLG
notes: Cloned into pMCSG7, 'which contains a 6X-histidine tag'; Two copies of the chain form the dimer on the GRE DNA in the crystal; also called MR DBD; MR
[2]
  binding result: binds

B3: FAM-GRE (dsDNA)
DNA 1: CCAGAACAGAGTGTTCTGA
DNA 2: TCAGAACACTCTGTTCTGG
GR DBD
  Kd: 53 nM
MR DBD [3]
  Kd: 55 nM
